Assay results reported in the RNAGym collection of RNA variant scans (doi:10.7554/elife.80360).

B1: HDV Ribozyme (parent)
chain: GGCCGGCAUGGUCCCAGCCUCCUCGCUGGCGCCGGCUGGGCAACAUUCCGAGGGGACCGUCCCCUCGGUAAUGGCGAAUGGGACCCA

Variants of: B1
Assay: self-cleavage, relative activity (ratio to wild type); higher = more cleavage; co-transcriptional

Variant	self-cleavage
G10U G38U	0.0625
G10U A83C	0.181
G11C C63U	0.264
G10U C14U	0.672
G10U C30G	0.0989
G10C C57U	1.11
G10U G73C	0.0831
G10U G73U	0.0639
G11U G76U	0.596
G11C G38A	0.0519
G10U A87G	0.704
G10U A87U	0.653
G10U A77C	0.0396
G11U G73C	0.126
G11U G73A	0.138
G10A G39C	0.182
G11A U37C	0.381
G11A U37A	0.0567
G10U A70G	0.858
G10U C86A	0.712
G10A G11A	0.189
G10A C86U	0.774
G11C C30G	0
G11C C30U	0.0604

Variant	self-cleavage
G10C G50C	0.923
G10C A78C	0.185
G10C A78U	0.222
G11C U65C	0.297
G11U G67A	0.0875
G10U A45U	0.506
G10U C84A	0.519
G11C C49U	0.332
G11U A56C	0.332
G11C C14U	0.285
G10A G67C	0.599
G10A G67U	0.767
G11A G74C	0.0723
G10U A16G	0.618
G10U A16C	0.906
G10U G25A	0.114
G11U C32G	0.0767
G10U U60C	0.767
G10U U60G	0.724
G10C U12A	0.123
G10C C85A	0.598
G10C C85U	1.07
G10U U27C	0.554
G10U G31U	0.181

Variant	self-cleavage
G11C G68A	0.295
G10U C32U	0.546
G11C C22U	0.0817
G11C C22A	0.0898
G10U G82C	0.089
G10U G82U	0.248
G10A U69C	0.997
G10C C75U	0.109
G10C G53U	0.91
G10A C61U	0.84
G11C A70G	0.0692
G11C A70C	0.32
G11U G39C	0
G10C G25U	0.0941
G11U C41U	0.358
G11U C41A	0.201
G10A G74C	0.105
G11A G52A	0.38
G10U C19A	0.0946
G11A G80U	0.0839
G10C A16G	0.453
G11U C84G	0.489
G11U C33A	0.0604
G10A C84A	0.562

Variant	self-cleavage
G10A C84G	0.591
G10A U27C	0.759
G10A U60A	0.739
G11U A87G	0.404
G11A G54U	0.391
G11A G54A	0.371
G11A G54C	0.479
G10U G74C	0.138
G11U A51C	0.324
G11U A51U	0.506
G11A A16U	0.723
G10C G17A	0.804
G10C G17C	0.208
G11A U60A	0.356
G11A C33U	0.271
G11C C21G	0
G10C U60A	0.932
G10U U20C	0
G10C A42U	0.289
G10C A42G	0.151
G10C G54U	0.897
G10A G31A	0.203
G10A C75U	0.0992
G10A C75A	0.0898

Variant	self-cleavage
G11U G31A	0.179
G11U G31U	0.129
G11C G34C	0.0852
G11A C13U	0.0297
G11A C13G	0.032
G11C G17U	0.332
G11U A45U	0.217
G11C C13A	0.142
G11U G50C	0.359
G11U C26U	0.847
G10C G81A	0.131
G10A G76U	0.997
G10A G76C	0.772
G10A G76A	1.04
G11C C32U	0.192
G11C C32G	0.0875
G10C C14U	1.11
G10A G55C	0.734
G11A C57U	0.256
G11A C57G	0.432
G11A C57A	0.45
G11C C26A	0.462
G11C C26G	0.95
G10C G55A	1.11

Variant	self-cleavage
G10U C33A	0.113
G10U C33U	0.466
G10A G73A	0.175
G10C G40A	0.95
G11A U27A	0.815
G11A U27C	0.447
G11A A78C	0.127
G11A A78U	0.111
G11A C85G	0.678
G11C G53C	0.291
G11C G53A	0.344
G11C G53U	0.415
G10C C61G	0.808
G11C A43U	0.0583
G11C A43C	0
G11U C64G	0.465
G11U G38A	0.0135
G11A A70U	0.246
G11A A70G	0.365
G10U G40A	0.745
G11A G40U	0.458
G11A G40A	0.582
G11A G67A	0.0841
G11A G25A	0.0755

Variant	self-cleavage
G11C G29C	0.0852
G10U C66A	0.895
G10A C57A	0.727
G10A C57G	0.912
G11C G35A	0.125
G11C C75U	0.185
G11U G28A	0.0219
G11U G28U	0.0396
G11A U23C	0.353
G11A U23A	0.313
G11A U69C	0.324
G11A U69G	0.374
G10U G29U	0.0475
G10C G67C	1.01
G10C G67A	0.712
G11A C22G	0.0193
G10U U46A	0.489
G11A G76C	0.796
G11C C61A	0.185
G11C C61U	0.157
G11C C61G	0.217
G10A G34U	0.257
G10A G34A	0.164
